Laboratory results published in article PMC11853025.
Residue numbers refer to the chain shown, from its start. Numbers in names are those of the source.

B1: CR4 αXI domain, wild type (WT) (domain or fragment)
chain: QEQDIVFLIDGSGSISSRNFATMMNFVRAVISQFQRPSTQFSLMQFSNKFQTHFTFEEFRRSSNPLSLLASVHQLQGFTYTATAIQNVVHRLFHASYGARRDAAKILIVITDGKKEGDSLDYKDVIPMADAAGIIRYAIGVGLAFQNRNSWKELNDIASKPSQEHIFKVEDFDALKDIQNQLKEKIFAI
B2: CR4 αXI domain, high-affinity (HA) variant p.I333G (domain or fragment)
chain: B1 chain with I186G

Key:
[1] = molecular target: iC3b (UniProt P01024); test: SPR; C3b deposited on a CM5 chip (amine-coupled seed, then convertase-mediated deposition to about 5000 RU), iC3b and C3dg made from it on the chip; αI domains injected as dilution series, 120 s; Biacore T200, 25 °C; HBST (10 mM HEPES, 150 mM NaCl, 0.005% Tween-20, pH 7.4) with 1 mM MgCl2; Langmuir 1:1 fit, KD calculated
[2] = molecular target: iC3b (UniProt P01024); test: SPR; competitive: αI domains at 5 µM preincubated with simvastatin (3-100 µM), injected over immobilised iC3b or ICAM-1; HBST with 1 mM MgCl2 and 5% DMSO; signal as percent of the non-inhibited signal

Binder	Kd [1] [µM]	residual binding activity with simvastatin (percent of the non-inhibited signal) [2] [%]
B1	33	
B2	2.6	63
